Assays:
mouse GCC = target: T1, mouse GCC (mouse, UniProt Q3UWA6 20-433, limits assumed); test: not described (FIG. 4: ELISA on GCC orthologs)
T1 construct: Construct used for the cross-reactivity test is not described
T1 sequence (looked up): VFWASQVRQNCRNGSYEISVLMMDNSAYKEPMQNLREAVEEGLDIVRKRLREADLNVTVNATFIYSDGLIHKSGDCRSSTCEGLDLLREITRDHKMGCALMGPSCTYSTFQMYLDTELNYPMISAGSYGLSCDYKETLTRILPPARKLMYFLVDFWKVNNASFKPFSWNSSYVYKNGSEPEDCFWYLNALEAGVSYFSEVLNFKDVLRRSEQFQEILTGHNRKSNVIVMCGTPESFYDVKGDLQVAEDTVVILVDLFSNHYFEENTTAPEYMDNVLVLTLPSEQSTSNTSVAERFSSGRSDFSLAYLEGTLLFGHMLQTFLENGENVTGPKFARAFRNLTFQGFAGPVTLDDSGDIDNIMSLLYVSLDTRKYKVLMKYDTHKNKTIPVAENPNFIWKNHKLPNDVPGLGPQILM

rat GCC = target: T2, rat GCC (rat, UniProt P23897 23-429, limits assumed); test: not described (FIG. 4: ELISA on GCC orthologs)
T2 construct: Construct used for the cross-reactivity test is not described
T2 sequence (looked up): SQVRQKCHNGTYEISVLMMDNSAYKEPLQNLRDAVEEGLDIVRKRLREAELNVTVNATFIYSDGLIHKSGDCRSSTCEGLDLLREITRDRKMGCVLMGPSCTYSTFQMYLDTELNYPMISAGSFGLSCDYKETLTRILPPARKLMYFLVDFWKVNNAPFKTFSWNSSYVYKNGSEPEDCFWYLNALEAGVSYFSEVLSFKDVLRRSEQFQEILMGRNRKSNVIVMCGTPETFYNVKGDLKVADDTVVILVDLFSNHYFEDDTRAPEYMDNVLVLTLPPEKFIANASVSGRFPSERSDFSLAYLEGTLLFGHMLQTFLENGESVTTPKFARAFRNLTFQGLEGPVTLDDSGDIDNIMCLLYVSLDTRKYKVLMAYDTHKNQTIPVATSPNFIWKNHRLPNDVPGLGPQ

[1] = target: T3, human GCC, full length with myc tag (293-GCC#2 cells) (human, UniProt P25092 24-1073); test: cell-based or functional assay
T3 sequence (P25092 24-1073): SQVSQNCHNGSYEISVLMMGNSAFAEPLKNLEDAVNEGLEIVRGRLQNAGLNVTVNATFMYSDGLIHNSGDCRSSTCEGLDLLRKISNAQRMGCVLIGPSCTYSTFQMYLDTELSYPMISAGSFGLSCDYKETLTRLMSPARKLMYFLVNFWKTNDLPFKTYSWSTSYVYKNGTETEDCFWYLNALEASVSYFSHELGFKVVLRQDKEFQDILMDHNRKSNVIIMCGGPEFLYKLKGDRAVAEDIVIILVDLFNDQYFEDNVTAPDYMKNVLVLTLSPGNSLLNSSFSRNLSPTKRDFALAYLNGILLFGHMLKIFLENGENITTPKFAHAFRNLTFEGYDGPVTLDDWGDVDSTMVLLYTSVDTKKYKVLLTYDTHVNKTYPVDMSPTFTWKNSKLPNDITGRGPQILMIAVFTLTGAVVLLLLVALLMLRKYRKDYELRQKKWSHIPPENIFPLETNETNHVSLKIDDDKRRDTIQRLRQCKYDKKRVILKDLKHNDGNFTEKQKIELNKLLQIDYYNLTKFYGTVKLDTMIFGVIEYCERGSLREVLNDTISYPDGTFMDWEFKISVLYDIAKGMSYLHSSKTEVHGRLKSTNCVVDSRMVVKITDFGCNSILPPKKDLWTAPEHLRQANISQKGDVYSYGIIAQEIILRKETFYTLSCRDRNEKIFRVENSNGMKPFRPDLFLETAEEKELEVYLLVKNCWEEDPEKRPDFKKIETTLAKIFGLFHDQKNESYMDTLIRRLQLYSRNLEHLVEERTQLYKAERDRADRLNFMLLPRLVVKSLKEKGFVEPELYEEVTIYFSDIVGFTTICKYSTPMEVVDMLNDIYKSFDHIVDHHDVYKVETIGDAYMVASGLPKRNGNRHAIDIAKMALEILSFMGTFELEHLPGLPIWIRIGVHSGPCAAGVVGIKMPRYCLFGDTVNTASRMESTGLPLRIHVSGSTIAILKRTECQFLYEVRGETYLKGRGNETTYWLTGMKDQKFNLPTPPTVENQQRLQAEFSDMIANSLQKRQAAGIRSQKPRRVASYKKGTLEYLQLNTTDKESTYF

[2] = target: T3, human GCC, full length with myc tag …; test: indirect immunofluorescence flow cytometry, 293 GCC #2 cells;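 also: cells exposed to the test antibodies for 1 h on ice before flow cytometric readout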

B1: mAb 5F9 (antibody, V domains shown)
VH: QVQLQQWGAGLLKPSETLSLTCAVFGGSFSGYYWSWIRQPPGKGLEWIGEINHRGNTNDNPSLKSRVTISVDTSKNQFALKLSSVTAADTAVYYCARERGYTYGNFDHWGQGTLVTVSS
VL: EIVMTQSPATLSVSPGERATLSCRASQSVSRNLAWYQQKPGQAPRLLIYGASTRATGIPARFSGSGSGTEFTLTIGSLQSEDFAVYYCQQYKTWPRTFGQGTNVEIK
notes: Human; hybridoma product is IgG2, kappa; also called 46.5F9.8.2; Prep A 5F9
binding result (mouse GCC): no binding | binding result (rat GCC): no binding | LD50, indirect cytotoxicity with DM1-conjugated mouse anti-human IgG, 293-GCC#2 cells, WST after 4 days [1]: 26 pM | MFI at 0.001 µg/ml [2]: 500 | MFI at 0.004 µg/ml [2]: 937 | MFI at 0.016 µg/ml [2]: 2460 | MFI at 0.063 µg/ml [2]: 6620 | MFI at 0.25 µg/ml [2]: 7820 | MFI at 1 µg/ml [2]: 8030

— patent publication US20140322233A1 (Takeda / Millennium, published 2014)
